According to patent publication US20200407428A1 (GOVERNMENT OF THE UNITED STATES OF AMERICA AS REPRESENTED …, published 2020):
Changes are numbered by the printed parent chain.

B1: R4B11 scFv-Fc (Fc fusion)
VH: QVQLEQSGAEVREPGASVKVSCKASGLTSGSYAITWVRQAPGQGLEWMGVIIPLVGVTNYAEKFQGRVTFTADTSTSTAYMELTSLRSDDTATYYCARDPFCSGNGCYGYYDVWGPGVKVTVSS
VL: DIELTQSPSSLSASVGDRVTITCRASQDISSWLAWYQQKPGKAPKLLISSASTLQSGVPSRFSGSGSGTDFTLTINSLQSEDFATYYCQQYNSVPLTFGGGTKVEMK
B2: scFv R4G7 (scFv, V domains shown)
VH: EVQLLESGGDLVQPGESLRLSCVVSGISFSNHGMTWVRQAPGKGLDWVSSIDSDGGGTFYADSVKGRFTISRDDSNNTVSLQMNSLRVEDTAVYYCAARHEYSDYYWGRGVPVTVSS
VL: DIELTQSPSILSVSPGERATLSCRASQSVGNRLAWYHQRPGQAPRLLIYGASSRPTGIPDRFSASGSGTEFTLTISSLEPEDVGVYYCQQNSKWPLTFGGGTKVEIK
B3: scFv R4G8 (scFv, V domains shown)
VH: EVQLVESGGGLVQPGESLRLSCVVSGLSFSNHGVTWVRQAPGKGLDWVSSIDTDGGGTFYGDSVKGRFTISRDNSKSTVSLEMNSLRVEDTAVYYCAARQEYSDYYWGRGVLVTVSS
VL: B2 VL with S9A, V13L, S22L, S28N, A64G, N91D, K93N, K103R
B4: scFv R4H12 (scFv, V domains shown)
VH: B3 VH with E1Q, V5L, N74D, S77N, L112P
VL: B2 VL with D1E, I10T, N31S, R39S, V85L
B5: scFv R4G11 (scFv, V domains shown)
VH: B3 VH with E6Q, N74D, S77N, L112P
VL: B2 VL with I10T, N31S, A64G, V85L
B6: scFv R3H2 (scFv, V domains shown)
VH: B3 VH with V5L, N74D, S77N, L112P
VL: B2 VL with S9A, V13L, S22L, S28N, A64G, N91D, K93N, K103R
B7: scFv R3C4 (scFv, V domains shown)
VH: B1 VH with R12K, E13K, L27F, T35S, T84S, D89E, Y95F, F101Y, Y110W, K119L
VL: DIELTQSPSSLSASVGDKVTISCRASQYIKSWLAWYQQKPGKAPKLLIYKASSLQSGVPSRFSGSGSGTDFTLTITNVQPEDFATYYCQQYDSAPFTFGPGTKLDIR
B8: scFv R4B11 (scFv, V domains shown)
VH: B1 VH
VL: B1 VL

The binders below were run against T1, Glycoprotein of Ravn virus in whole irradiated virus (Ravn virus, UniProt Q1PDC7 19-681) (assay: Western blot on whole irradiated virus, reduced).
T1 sequence: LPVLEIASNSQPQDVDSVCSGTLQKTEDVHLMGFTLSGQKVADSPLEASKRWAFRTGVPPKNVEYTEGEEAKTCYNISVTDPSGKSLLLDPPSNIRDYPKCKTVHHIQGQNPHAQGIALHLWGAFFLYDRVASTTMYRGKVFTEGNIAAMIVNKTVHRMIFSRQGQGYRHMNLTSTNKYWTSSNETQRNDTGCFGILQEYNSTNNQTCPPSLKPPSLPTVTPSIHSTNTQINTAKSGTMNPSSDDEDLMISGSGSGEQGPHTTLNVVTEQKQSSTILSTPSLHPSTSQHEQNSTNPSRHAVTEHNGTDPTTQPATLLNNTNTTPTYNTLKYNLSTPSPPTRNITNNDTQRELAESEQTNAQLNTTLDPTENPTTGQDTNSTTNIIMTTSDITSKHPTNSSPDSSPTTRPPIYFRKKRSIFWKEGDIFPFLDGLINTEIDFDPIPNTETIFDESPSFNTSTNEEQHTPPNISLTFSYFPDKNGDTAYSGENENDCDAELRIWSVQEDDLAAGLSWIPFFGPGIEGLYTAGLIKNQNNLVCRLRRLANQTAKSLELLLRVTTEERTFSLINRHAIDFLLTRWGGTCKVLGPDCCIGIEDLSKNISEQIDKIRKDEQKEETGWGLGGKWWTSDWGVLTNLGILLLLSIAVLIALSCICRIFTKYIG
B1: no binding (tested: 1 ug/ml).

What follows are binders tested against MARV Ci67 GP1-649 (Marburg virus, isolate Ci67) (assay: SPR (BIAcore 3000), GP1-649 amine-coupled on CM5, scFv in solution).
B2 showed a Kd of 4.6 nM, a koff of 0.000379 s⁻¹ and a kon of 81900 M⁻¹ s⁻¹. Binder B3 has a Kd of 68 nM, a koff of 0.0063 s⁻¹ and a kon of 92300 M⁻¹ s⁻¹. B4 was tested, and the Kd was 3.9 nM, the koff was 0.000565 s⁻¹ and the kon was 146000 M⁻¹ s⁻¹. B5 showed a Kd of 6.3 nM, a koff of 0.000475 s⁻¹ and a kon of 75000 M⁻¹ s⁻¹. B6 showed a Kd of 155 nM, a koff of 0.000993 s⁻¹ and a kon of 6390 M⁻¹ s⁻¹. For B7, the Kd was 33 nM, the koff was 0.000386 s⁻¹ and the kon was 11600 M⁻¹ s⁻¹. With B8 the Kd was 4.6 nM, the koff was 0.000407 s⁻¹ and the kon was 87600 M⁻¹ s⁻¹.

Each binder was assayed against T2, Glycoprotein of Marburg virus isolate Musoke in whole irradiated virus (Marburg virus, isolate Musoke, UniProt P35253 19-681) (assay: Western blot of scFv-Fc on whole irradiated virus, reduced).
T2 sequence: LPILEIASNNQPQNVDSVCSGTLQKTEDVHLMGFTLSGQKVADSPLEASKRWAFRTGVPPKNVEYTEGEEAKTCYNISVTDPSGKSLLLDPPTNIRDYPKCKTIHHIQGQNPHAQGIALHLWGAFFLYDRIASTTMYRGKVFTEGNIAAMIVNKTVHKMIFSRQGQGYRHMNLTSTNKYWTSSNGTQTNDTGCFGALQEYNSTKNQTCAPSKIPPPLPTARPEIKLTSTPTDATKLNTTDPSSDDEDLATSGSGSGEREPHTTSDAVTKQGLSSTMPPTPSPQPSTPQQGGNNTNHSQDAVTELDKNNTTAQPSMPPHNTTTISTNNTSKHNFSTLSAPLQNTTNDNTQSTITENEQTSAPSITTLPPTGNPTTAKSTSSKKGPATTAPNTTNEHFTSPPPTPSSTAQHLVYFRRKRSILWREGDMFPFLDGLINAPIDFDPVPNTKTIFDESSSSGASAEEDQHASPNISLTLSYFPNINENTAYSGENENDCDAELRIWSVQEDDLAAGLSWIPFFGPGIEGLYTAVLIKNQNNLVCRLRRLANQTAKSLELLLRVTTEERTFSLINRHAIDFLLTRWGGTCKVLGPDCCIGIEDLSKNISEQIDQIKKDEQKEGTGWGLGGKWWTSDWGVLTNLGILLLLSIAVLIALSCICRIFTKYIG
B1: binds.
